Laboratory results: patent US20220048999A1 (Genmab, published 2022)

Tests used:
[1] = target: T1, mouse (Mus musculus) B7H4, full length, on HEK-293F cells (mouse, UniProt Q7TSP5 25-257); experiment: flow cytometry, HEK-293F cells transiently transfected with mouse B7H4 (panel Mouse B7H4), 0.000458-30 µg/ml, PE-anti-human IgG, MFI PE
T1 sequence: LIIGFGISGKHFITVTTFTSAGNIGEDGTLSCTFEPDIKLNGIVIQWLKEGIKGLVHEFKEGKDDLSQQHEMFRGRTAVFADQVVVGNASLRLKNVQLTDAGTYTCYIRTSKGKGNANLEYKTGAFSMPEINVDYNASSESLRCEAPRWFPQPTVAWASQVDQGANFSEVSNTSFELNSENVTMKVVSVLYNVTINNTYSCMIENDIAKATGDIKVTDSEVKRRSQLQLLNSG
Procedure: (§1) Cells (3×10⁴ cells/well) were incubated in polystyrene 96-well round-bottom plates (Greiner bio-one, cat. no. 650180) with serial dilutions of antibodies (ranging from 0.000458 to 30 μg/mL in 4-fold dilution steps) in 100 μL PBS/0.1% BSA/0.02% azide (staining buffer) at 4° C. for 30 min. Experiments were performed in technical duplicate. After washing twice in staining buffer, cells were incubated in 50 μL secondary antibody at 4° C. for 30 min. As a secondary antibody, R-Phycoerythrin (PE)-conjugated goat-anti-human IgG F(ab′)₂ (1:500 in FACS buffer; Jackson ImmunoResearch Laboratories, Inc., West Grove, Pa., cat. no. 109-116-098), was used. Cells were washed twice in staining buffer, re-suspended in 30 μL FACS buffer containing Topro-3 (1:10,000 dilution) and analyzed on an iQue Screener (Intellicyt Corporation, USA). Binding curves were analyzed using non-linear regression (sigmoidal dose-response with variable slope) using Graph Pad Prism V7.02 software (GraphPad Software, San Diego, Calif., USA).

[2] = target: T2, cynomolgus monkey (Macaca fascicularis) B7H4 transcript 1, full length, on HEK-293F cells (cynomolgus monkey, UniProt Q7Z7D3 25-282 (human entry)); experiment: flow cytometry, HEK-293F cells transfected with cynomolgus monkey B7H4 (panel Cynomolgus monkey B7H4), about 0.0004-30 µg/ml, MFI PE
T2 construct: also called cynomolgus B7H4
T2 chain: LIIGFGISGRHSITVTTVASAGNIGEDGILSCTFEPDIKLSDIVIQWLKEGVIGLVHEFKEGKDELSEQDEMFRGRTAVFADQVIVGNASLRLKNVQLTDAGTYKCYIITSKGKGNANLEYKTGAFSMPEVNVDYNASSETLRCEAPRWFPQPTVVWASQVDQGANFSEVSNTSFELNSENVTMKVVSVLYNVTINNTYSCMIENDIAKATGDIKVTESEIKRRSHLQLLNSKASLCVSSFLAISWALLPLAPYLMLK
Procedure: as §1

[3] = target: T3, human B7H4, full length, on cells (human, UniProt Q7Z7D3 25-282); experiment: flow cytometry, HEK-293F cells transfected with human B7H4 (panel Human B7H4), about 0.0004-30 µg/ml, MFI PE
T3 construct: On transiently transfected HEK cells or on B7H4-expressing human tumor cell lines; also called VTCN1
T3 sequence: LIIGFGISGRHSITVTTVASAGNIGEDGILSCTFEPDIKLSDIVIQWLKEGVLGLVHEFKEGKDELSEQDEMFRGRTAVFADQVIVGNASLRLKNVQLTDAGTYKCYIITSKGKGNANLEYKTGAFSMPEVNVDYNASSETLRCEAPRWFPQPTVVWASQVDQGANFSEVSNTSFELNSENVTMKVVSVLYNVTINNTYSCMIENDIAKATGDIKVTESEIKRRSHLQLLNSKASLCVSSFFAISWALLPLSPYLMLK
Procedure: as §1

EC50 (read off the curve) [1]: ~0.4 µg/mL
EC50 (read off the curve) [2]: ~0.1 µg/mL
EC50 (read off the curve) [3]: ~0.04 µg/mL
B1: IgG1-B7H4-C1-N52S-FEAR (antibody, V domains shown)
VH: QVQLQQWGAGLLKPSETLSLTCAVYGGSFSGYYWSWIRQPPGKGLEWIGEISHSGSTNYNPSLKSRVTISIDTSKNQFSLKLTSVTAADTAVFYCARGLFNWNFDSWGQGTLVTVSS
VL: DIQMTQSPSSLSASVGDRVTITCRASQGIRNDLGWYQQKPGKAPKRLIYGASSLQSGVPSRFSGSGSGTEFTLTISSLQPEDFATYYCLQHNSYPRTFGQGTTVEIKR
notes: Full-length human IgG1 with L234F, L235E, D265A, K409R (FEAR), kappa light chain; also called IgG1-B7H4-C1-052S-FEAR; IgG1-B7H4-C1-N525-FEAR
